According to patent US20250206809A1 (UNIVERSITY OF MASSACHUSETTS, published 2025):

T1: MBP-CfaE-N (recombinant N-terminal adhesin domain of CfaE fused to an MBP tag) (enterotoxigenic Escherichia coli, UniProt P0AEX9 27-392 = MBP, Biotinylated for SPR; FITC or Alexa Fluor labelled for yeast flow cytometry.)
T1 construct: It was used unlabelled in ELISA, 'biotinylated' on the chip in the SPR methods, and FITC/Alexa-labelled in yeast flow cytometry; also called recombinant N-terminal truncated CfaE protein; N-terminal truncation of CfaE; not shown: MBP tag and linker of vector pMAL-C5X, and the donor strand complement
T1 sequence: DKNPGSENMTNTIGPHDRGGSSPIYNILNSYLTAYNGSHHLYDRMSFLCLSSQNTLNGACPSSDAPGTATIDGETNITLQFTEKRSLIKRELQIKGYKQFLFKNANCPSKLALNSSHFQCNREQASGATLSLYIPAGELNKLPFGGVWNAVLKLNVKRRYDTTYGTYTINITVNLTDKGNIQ

T2: CFA/I (adhesin CfaE) on ETEC strain H10407 (enterotoxigenic Escherichia coli strain …, UniProt P25734 1-360)
T2 sequence (looked up): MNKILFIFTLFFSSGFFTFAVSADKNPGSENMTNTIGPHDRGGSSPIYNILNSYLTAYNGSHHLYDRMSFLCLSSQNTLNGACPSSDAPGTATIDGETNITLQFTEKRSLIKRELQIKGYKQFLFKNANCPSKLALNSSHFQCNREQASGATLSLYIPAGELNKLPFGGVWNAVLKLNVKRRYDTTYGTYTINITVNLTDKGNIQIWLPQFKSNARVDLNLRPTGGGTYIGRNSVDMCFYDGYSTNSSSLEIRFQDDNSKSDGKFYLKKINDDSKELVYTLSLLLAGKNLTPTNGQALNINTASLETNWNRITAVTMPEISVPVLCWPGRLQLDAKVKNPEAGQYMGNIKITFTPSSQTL

T3: CS14
T3 construct: not the CS14 on an ETEC strain; also called recombinant CS14; N-terminal adhesin domain of CsuD with MBP tag; not shown: MBP tag from vector pMAL-C5X, with any linker or donor-strand complement
T3 chain: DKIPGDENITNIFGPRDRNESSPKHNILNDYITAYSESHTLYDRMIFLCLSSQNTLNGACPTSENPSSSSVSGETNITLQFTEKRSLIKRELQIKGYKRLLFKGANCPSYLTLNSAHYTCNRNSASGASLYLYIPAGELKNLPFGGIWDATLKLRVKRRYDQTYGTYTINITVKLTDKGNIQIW

T4: CS19
T4 construct: not the CS19 on an ETEC strain; also called recombinant CS19; N-terminal adhesin domain of CsdD with MBP tag; not shown: MBP tag from vector pMAL-C5X, with any linker or donor-strand complement
T4 chain: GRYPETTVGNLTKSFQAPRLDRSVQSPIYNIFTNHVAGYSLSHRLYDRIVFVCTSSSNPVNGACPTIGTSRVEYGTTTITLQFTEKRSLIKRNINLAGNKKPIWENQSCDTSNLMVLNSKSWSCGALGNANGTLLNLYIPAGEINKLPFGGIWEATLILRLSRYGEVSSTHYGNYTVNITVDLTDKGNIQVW


What was measured:
[1] = target: T1, MBP-CfaE-N (recombinant N-terminal …); experiment: SPR, Biacore T200, CfaE on CM5 chip, VHH injected, 25 °C, 1:1 model
Protocol: Surface plasmon resonance (SPR) technology was used to assess the binding properties of the VHH molecules (BIACORE® T200 instrument; GE Healthcare). Biotinylated CfaE protein was coupled to a CM5 sensor chip using standard amine coupling chemistry. Various concentrations of lead nanobodies ranging from 1 to 10 ug were injected over the chip surface at a flow rate of 30 I/min. An association step of 60 s was followed by a dissociation step of 180 s, and the final dissociation step was 600 s. Regeneration of the sensor chip surface was accomplished using 3 M MgCl₂. Experiments were performed at 25° C. Kinetic data were analyzed using BIACORE® T200 Evaluation (version 3.0) software and a 1:1 binding model.

[2] = target: CS6 on an ETEC strain (enterotoxigenic Escherichia coli); experiment: cell-based or functional assay
[3] = target: CS17 on an ETEC strain (enterotoxigenic Escherichia coli); experiment: cell-based or functional assay
[4] = target: CS1 on an ETEC strain (enterotoxigenic Escherichia coli); experiment: cell-based or functional assay
[5] = target: CS3 on an ETEC strain (enterotoxigenic Escherichia coli); experiment: cell-based or functional assay
[6] = target: CS4 on an ETEC strain (enterotoxigenic Escherichia coli); experiment: cell-based or functional assay
[7] = target: CS14 on an ETEC strain (enterotoxigenic Escherichia coli); experiment: cell-based or functional assay
[8] = target: CS5 on an ETEC strain (enterotoxigenic Escherichia coli); experiment: cell-based or functional assay
[9] = target: CS2 on an ETEC strain (enterotoxigenic Escherichia coli); experiment: cell-based or functional assay
[10] = target: CS19 on an ETEC strain (enterotoxigenic Escherichia coli); experiment: cell-based or functional assay
[11] = target: CS21 on an ETEC strain (enterotoxigenic Escherichia coli); experiment: cell-based or functional assay
[12] = target: T2, CFA/I (adhesin CfaE) on ETEC strain …; experiment: cell-based or functional assay
[13] = target: T3, CS14; experiment: ELISA: plate coated with the recombinant antigen, purified VHH titrated (y axis printed as absorbance at 405, the text says OD450)
[14] = target: T4, CS19; experiment: as above

| Binder | Kd [1] | koff [1] | kon [1] | MRHA IC100 [2] | MRHA IC100 [3] | MRHA IC100 [4] | MRHA IC100 [5] | MRHA IC100 [6] | MRHA IC100 [7] | MRHA IC100 [8] | MRHA IC100 [9] | MRHA IC100 [10] | MRHA IC100 [11] | MRHA IC100 [12] | binding result [13] | binding result [14] |
| --- | --- | --- | --- | --- | --- | --- | --- | --- | --- | --- | --- | --- | --- | --- | --- | --- |
| VHH antibody 2R23 (monomeric nanobody) (VHH, Yeast-library clone, expressed in the E. coli periplasm) VHH: QVQLQESGGGLVQAGGSLRLSCAASGYIFWSYGYMGWYRQAPGKERELVATISRGGTTNYADSVKGRFTISRDNAKNTVYLQMNSLKPEDTAVYYCAAGRYAFGYFKYWGQGTQVTVSS | 9.06 nM | 64.6 s⁻¹ | 7.13e+09 M⁻¹ s⁻¹ | 12.5 µg/mL | 6.25 µg/mL | 200 µg/mL | 100 µg/mL | 25 µg/mL | 25 µg/mL | 12.5 µg/mL | 200 µg/mL | 200 µg/mL | 25 µg/mL | 50 µg/mL | binds | – |
| VHH antibody 2R215 (monomeric nanobody) (VHH, Yeast-library clone, expressed in the E. coli periplasm and purified by Ni-NTA; also called monomeric 2R215; monomeric VHH 2R215) VHH: QVQLQESGGGLVQAGGSLRLSCAASGNIFQDAEMGWYRQAPGKEREFVATIAYGGNTNYADSVKGRFTISRDNAKNTVYLQMNSLKPEDTAVYYCAVYTGVYYDRTTGGYVAFEYWGQGTQVTVSS | – | – | – | 25 µg/mL | 6.25 µg/mL | 200 µg/mL | 100 µg/mL | 100 µg/mL | 200 µg/mL | 6.25 µg/mL | 6.25 µg/mL | 200 µg/mL | 25 µg/mL | 25 µg/mL | – | binds |
| VHH antibody 1D7 (monomeric nanobody) (VHH) VHH: EVQLVESGGGLVQAGGSLTLSCAASERTFSYYVMAWFRQAPGKEREFVAGISMSGDSTKYADSVKGRFTISRDNAENTGYLQMNGLKPEDTAVYYCAADRDIRGNFRSWGRGTQVTVSS | 17.7 nM | 0.0311 s⁻¹ | 1.75e+06 M⁻¹ s⁻¹ | 12.5 µg/mL | 6.25 µg/mL | 50 µg/mL | 50 µg/mL | 200 µg/mL | 100 µg/mL | 3.12 µg/mL | 50 µg/mL | 100 µg/mL | 25 µg/mL | 100 µg/mL | – | – |
| VHH antibody 1H4 (monomeric nanobody) (VHH) VHH: EVQLVESGGGLVQAGGSLRLSCAASSRTFNHYNIGWFRQAPGKEREFAAAITWNGRSTLYADSVKGRFTISRDNAKNTVYLQMNSLKPEDTAVYYCATLTTWEHKWEYNSQGQGTQVTVSS | – | – | – | 25 µg/mL | 6.25 µg/mL | 100 µg/mL | 100 µg/mL | 25 µg/mL | 100 µg/mL | 3.12 µg/mL | 100 µg/mL | 100 µg/mL | 25 µg/mL | 200 µg/mL | – | – |
